# Measurements from the supplement of paper PMC12764529.
# ± gives the half width of the 95% confidence interval.
# Assays:
# [1] = folding stability dG unfold from trypsin proteolysis; higher = more stable
# In short: (§1)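 Digests were run with trypsin and chymotrypsin at 11 concentrations in threefold dilutions, plus a no-protease condition, on designed mini-proteins in a PA-tagged cDNA display construct. The mini-proteins were under 80 residues, had no cysteine, and were kept only when AlphaFold2 dimer inter-PAE was above 15. After sequencing, Bayesian fitting of the counts gave K50, from which unfolding free energy was derived against a sequence-predicted unfolded-state K50 and a shared folded-state K50, per protease or combined.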
# [2] = folding stability dG unfold from chymotrypsin proteolysis; higher = more stable
# In short: as §1
# [3] = folding stability dG unfold (combined trypsin and chymotrypsin); higher = more stable
# In short: as §1
Sequence,folding stability dG unfold [1],folding stability dG unfold [2],folding stability dG unfold [3]
SAGGSAEKKVLKVKVEVVSVEVNEDGTVTVTAKVTFEDGLELTVTVTFDKETGELTIEVELRPLPPSAGGSA [r15_401_TrROS_Hall],2.42 ± 0.22 kcal/mol,3.48 ± 0.15 kcal/mol,3.13 ± 0.15 kcal/mol
SAGGSAEKPVRTLEITVTVPPGQPTPEELARALAEELGVEVTRVEVVRVERNEDGELTVTVRVEVKSAGGSA [r15_654_TrROS_Hall],3.2 ± 0.21 kcal/mol,2.5 ± 0.14 kcal/mol,2.99 ± 0.14 kcal/mol
SAGGSAELPSLGAEITVTEDPNRNTYTVTVPLVAPDGAPVGTLTVPFSSLEEARAFLRAQGLGELLSAGGSA [r15_127_JUSTAS],2.59 ± 0.031 kcal/mol,2.836 ± 0.01 kcal/mol,2.773 ± 0.016 kcal/mol
SAGGSAELVSVDVELEGRYLRVRARFRLPDGREVEVEVRFSLPGVPPAPPVFPYRDPETGELRLGLSAGGSA [r15_335_TrMRF],3.27 ± 0.056 kcal/mol,3.614 ± 0.023 kcal/mol,3.57 ± 0.14 kcal/mol
SAGGSAEPPEVTVEVLSVEPTPDGYLVVERVVTTPDGVLVYRTVFRPPDGKPVGTDWALFPNPDALSAGGSA [r15_716_TrMRF],2.17 ± 0.23 kcal/mol,3.53 ± 0.041 kcal/mol,2.95 ± 0.12 kcal/mol
SAGGSAEQTATIESVEYNEETGELTIRIRLENGEEVEITVKPDGTITITLPPGAKITEIEIERLPPSAGGSA [r15_959_TrROS_Hall],1.91 ± 0.15 kcal/mol,2.3 ± 0.32 kcal/mol,2.53 ± 0.35 kcal/mol
SAGGSAESIPVDELVELAKKLGLDVTVTPLPETGLVRVEITFTTPDGSKVPATVLVHPDGRTTVFPSAGGSA [r15_1051_TrMRF],1.82 ± 0.038 kcal/mol,2.208 ± 0.018 kcal/mol,2.08 ± 0.032 kcal/mol
SAGGSAFKGMPPEQVKRVIEIDHPNGKDIYIVRYKGPGHMMIFPPKEGKPIYIPMPLDEIKEFLLSSAGGSA [r15_810_TrROS],0.337 ± 0.054 kcal/mol,0.672 ± 0.13 kcal/mol,0.548 ± 0.094 kcal/mol
SAGGSAFRVQTWDDGKPRKIPIGESLDDLKDQIDDNPNYPIYIEFPNGKPFHMPWSDIKNMIDQLKSAGGSA [r15_36_TrROS],0.172 ± 0.17 kcal/mol,-0.196 ± 0.47 kcal/mol,-0.0315 ± 0.28 kcal/mol
SAGGSAGALLVRFNDPELVRELIEALPFDALVERDPDDPNVLLVTLFTDGPLEEAVRAVREALGLESAGGSA [r15_118_TrMRF],2.35 ± 0.039 kcal/mol,3.25 ± 0.04 kcal/mol,2.98 ± 0.086 kcal/mol
SAGGSAGDLELIGVFPFTLPDGRRITVPIFRDPSTGERYLFAETEGEEEDLTPAAIETALAVLERESAGGSA [r15_529_TrMRF],1.87 ± 0.051 kcal/mol,2.09 ± 0.037 kcal/mol,2.05 ± 0.084 kcal/mol
SAGGSAGGAEVVKVDPKPAGVTTVLERYPDGTLRLLKETEENGKLTVSEVETIPVPDISKPPLLSAGGSAGG [r6_836_JUSTAS],-0.198 ± 0.075 kcal/mol,0.164 ± 0.066 kcal/mol,0.0779 ± 0.11 kcal/mol
SAGGSAGGAFTVTLPDGRPVRVRLLGATFTFEVRIPPGVPDVVPGAKPDEVVKVTRVVLVVSLDSAGGSAGG [r6_907_TrMRF],2.82 ± 0.13 kcal/mol,4.57 ± 0.096 kcal/mol,4.16 ± 0.14 kcal/mol
SAGGSAGGANDPEMPKPKRVEITIPPDEEIRNPNGKEMPVEQAREYAEYLADRYGIDVEITISPSAGGSAGG [r6_162_TrROS],-0.406 ± 0.29 kcal/mol,0.215 ± 0.43 kcal/mol,-0.202 ± 0.41 kcal/mol
SAGGSAGGANTVTIELPNGFRITLNDDGTITISYYDPETGELVKTVTIKLPPPPPVVVVHEDDKSAGGSAGG [r6_572_TrROS_Hall],3.1 ± 0.23 kcal/mol,3.39 ± 0.077 kcal/mol,3.35 ± 0.12 kcal/mol
SAGGSAGGAPPDLKVTVKPTPGPGTGQRYTVVVELDEGGVLPFPFSFASPSEVEKAAKAIAALLSAGGSAGG [r6_996_TrMRF],1.02 ± 0.056 kcal/mol,1.57 ± 0.14 kcal/mol,1.31 ± 0.14 kcal/mol

Sequence,folding stability dG unfold [1],folding stability dG unfold [2],folding stability dG unfold [3]
SAGGSAGGATTEINLPLKVPGSGVTITKMTYDPNKDVYFVTATFPDGTKKTIKVKSLEELKKLLSAGGSAGG [r6_548_JUSTAS],3.83 ± 0.24 kcal/mol,2.52 ± 0.046 kcal/mol,3.11 ± 0.15 kcal/mol
SAGGSAGGAVVKLPGNTVMTIDPSTGIAYVTDPSGKVTKYTLTKFPDKTLWEEEPVEEIPSDLLSAGGSAGG [r6_324_JUSTAS],1.53 ± 0.09 kcal/mol,1.44 ± 0.16 kcal/mol,1.55 ± 0.23 kcal/mol
SAGGSAGGDAKTFEVEGMTVFVDPETGLAVAEFPDGYLALGRIEVFGPGVAKVDLEIFPLPPGLSAGGSAGG [r6_670_TrMRF],1.74 ± 0.11 kcal/mol,1.53 ± 0.071 kcal/mol,1.61 ± 0.13 kcal/mol
SAGGSAGGDEVKIEVEVKKVKVKVRVRVKNEDGEEKEVEKEFEVEVVKVKIEFKSPEEAKKLGLSAGGSAGG [r6_149_TrROS_Hall],1.14 ± 0.088 kcal/mol,0.144 ± 0.42 kcal/mol,1.11 ± 0.27 kcal/mol
SAGGSAGGDKNAKPQPIMIAIEIYNPNGRKQEHTFPFESLDDAKEFIEDWLPPGYQVKVDIYPVSAGGSAGG [r6_290_TrROS],0.322 ± 0.1 kcal/mol,0.709 ± 0.07 kcal/mol,0.693 ± 0.16 kcal/mol
SAGGSAGGDPGDDYKIGVFPFTFLFGGYRISIPIFRITKDGKPQHIFMAIEIEPLPPPKDPGDNSAGGSAGG [r6_684_TrROS],3.21 ± 0.093 kcal/mol,4 ± 0.087 kcal/mol,3.71 ± 0.15 kcal/mol
SAGGSAGGDRLEVVAPVDDPVEQAREFAERLREEFRRRYPDREIDRVEVFYDPGARTLHVRLYPSAGGSAGG [r6_662_TrMRF],2.12 ± 0.026 kcal/mol,2.704 ± 0.024 kcal/mol,2.51 ± 0.066 kcal/mol
SAGGSAGGEATEGTLIVGGKPVRVTVERTPEGGRIATVELPNGVTVVARLNPVTRGAEILEVVESAGGSAGG [r6_290_TrMRF],0.773 ± 0.05 kcal/mol,1.45 ± 0.086 kcal/mol,1.17 ± 0.13 kcal/mol
SAGGSAGGEDKYLVVEFTVPEGKAEEFIAEVKKKIPPNWKIERVEIVEKTEDGLYRVRVVLKPGSAGGSAGG [r6_340_TrMRF],4.5 ± 0.14 kcal/mol,4.88 ± 0.049 kcal/mol,4.87 ± 0.086 kcal/mol
SAGGSAGGEEAREAIEQELRARGINVTEIKVEEKKLTPDKTVVTFTVTARLPDSELTSTFTVVDSAGGSAGG [r6_533_JUSTAS],0.141 ± 0.19 kcal/mol,-0.92 ± 0.81 kcal/mol,-0.173 ± 0.13 kcal/mol
SAGGSAGGEFTVTVTIEKDEEKGFIRIPISVSLPSSAFVPKTVEFLEFAKTLKENLPELEVDASSAGGSAGG [r6_102_TrMRF],0.609 ± 0.018 kcal/mol,0.65 ± 0.075 kcal/mol,0.679 ± 0.038 kcal/mol
SAGGSAGGEIPPNIKKIETLPDDGWLMVKVDSPKDIREFFEDHGWEIKDVEEEGNTIHIPIKPKSAGGSAGG [r6_381_TrROS],0.648 ± 0.072 kcal/mol,0.893 ± 0.24 kcal/mol,0.79 ± 0.25 kcal/mol
SAGGSAGGEKGYKLVEITIPVTVYHGNKPYTIPIPIKVKSPEEVEKLKKFIENTSYDPTSGKFSSAGGSAGG [r6_197_TrMRF],0.607 ± 0.1 kcal/mol,1.28 ± 0.24 kcal/mol,1.02 ± 0.13 kcal/mol
SAGGSAGGEKPVVTRLELVETEEGLVRLRVELPDGELVEERRFPTLEEALAALPPGAKVEIVPLSAGGSAGG [r6_492_TrROS_Hall],1.85 ± 0.032 kcal/mol,1.54 ± 0.01 kcal/mol,1.7 ± 0.032 kcal/mol
SAGGSAGGELEVEIVSVEFDEETKEIRIKIYVNGKLIEEKTIKIEPVKVYYKTKDGKKVSAEDLSAGGSAGG [r6_832_TrROS_Hall],1.1 ± 0.089 kcal/mol,1.16 ± 0.26 kcal/mol,1 ± 0.19 kcal/mol
